The assay concerns the target chemically synthesized dimannosylated peptide (DM), 12mer peptide from hemagglutinin (HA) with diman.

By Kd is commonly meant the constant that tells how readily two partners part at equilibrium. A high value points to a looser complex. For the substance “CVN2L0, a tandem-linked dimeric CVN2 with zero-linker length (tandem repeat of two cyanovirin-N molecules)”, the Kd was 3.94 µM.

The values are drawn from paper PMC11112747, “Cyanovirin-N Binding to N-Acetyl-D-glucosamine Requires Carbohydrate-Binding Sites on Two Different Protomers” (Biochemistry, 2024).
